Experiments:
[1] = molecular target: TRIM21 (UniProt P19474); assay: anti-Flag co-IP, TRIM21 blot; details: reference: wild type, EGF-treated; sites Y288
[2] = molecular target: TRIM21 (UniProt P19474); assay: co-IP, blot; details: reference: wild type CD47, c-Src CA expressed; sites Y288

binding against the reference [1] | binding against the reference [2] | Substance
stronger |  | CD47 (from UniProt Q08722) Y288F, EGF-treated
 | stronger | CD47 (from UniProt Q08722) Y288F, c-Src CA expressed

— publication PMC10520678
